For this series, the target named is Musashi-2 (MSI2) (UniProt Q96DH6 1-328). The experiment in a line: EMSA; 10 mM HEPES pH 7.6, 20 mM KCl, 1 mM MgCl2, 1 mM DTT, 5% glycerol, protease inhibitors, 2 ug tRNA, 20 U SUPERase-In, 20 ul, 50 ng MSI2, 20 ng RNA, 25 C; 8% PAGE. Conditions: protein: recombinant; label: 5'-32P. For orientation: A gel shift assay detects complexes by their altered migration in electrophoresis.
Chain of Musashi-2 (MSI2) (Q96DH6 whole entry): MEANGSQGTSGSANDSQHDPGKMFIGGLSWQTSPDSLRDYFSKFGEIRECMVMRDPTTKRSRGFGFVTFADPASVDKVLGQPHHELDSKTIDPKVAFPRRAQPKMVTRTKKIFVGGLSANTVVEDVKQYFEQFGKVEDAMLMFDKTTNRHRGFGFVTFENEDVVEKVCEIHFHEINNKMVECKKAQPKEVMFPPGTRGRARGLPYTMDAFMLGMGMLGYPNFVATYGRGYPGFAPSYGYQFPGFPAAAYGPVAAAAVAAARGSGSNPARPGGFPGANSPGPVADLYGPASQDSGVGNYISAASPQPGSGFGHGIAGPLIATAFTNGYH

Turning to GCAGAUGUUUUAGAAGGAAAAA (ssRNA) [EGFR Oligo 1 wt], the binding result is recorded as “binds”. With GGUCCCAAGCCAAGCCUUAAGU (ssRNA) [Negative Control oligo] the entry was “no binding”. On to UAACUUCGUUUUAGAAACAUUCAAG (ssRNA) [EGFR Oligo 2 wt], for which the binding result was “binds”. On to GUAGUAGUAGUAGUA (ssRNA) [Positive Control oligo], for which the binding result is listed as “binds”.

These data come from paper PMC7961039, “Musashi-2 (MSI2) regulates epidermal growth factor receptor (EGFR) expression and response to EGFR inhibitors in EGFR-mutated non-small cell lung cancer (NSCLC)”.
